Experimental data taken from the DeepSol protein solubility set.

Assay: soluble on expression in E. coli; label from the status in PepcDB or PDB records

Sequence	soluble on expression in E. coli
MSLAKKNYILVIDDDVMMSQTISDFIHGKGYHVIVCNNLEEAFSELSQYKIDLILINFWQPDGTALILLEHLNEEKITTPVIVISNTKEHQSVLECFRMGVLDFVVKPINLEIFWYKVECLLTRVKLQHEVKLQRVELEKMLYEKAREEKMARNLFEHLVNIDNTQFEFVRTFCQASANFSGDIILKGLAPNGNFFLMPEFNSEVRHSTIKQLIGEEGHHHHHH	soluble
MKATTVKENEVKDDRKLSLNEMLRKRCLQVKNTKMKNSSMPKFQYFVRLNGKTRTLNVNASDTVEQGKMQLCHNARSTRMSYGGKPLSDQITFGEYNISNNSTMDLHFRI	not soluble
MGSDKIHHHHHHMQITLNIEHIRADTPLPPLFRVRQRWQTSPIADVAAVVYAELDKIGLAGHIQPGMRIAVTAGSRGISNIVTITAAAVAWLRAHGAEPFIVPAMGSHGGATAEGQVALLASLGITEQSVGCPIRATMDVVELGRIADGTPVYMDRFAAEADGVLVINRIKTHTSFKAPIESGLAKMCAVGLGKRQGAEIVHRTAVYGLKEQLVPMARMVVERGRVLAGLAILEDARDQTAAIVALPPAEIGGAGEAELLLRSKEMMARLPFDRLDVLVVDRIGKNISGTGMDTNVIGRLPIPGEPPPDRPVINVIVVLDLTPETHGNANGIGLADITTARLAAKIDFHATYVNVLTAGLVGLCKGGLPITLPTERDAVAMAIKTCGQPDLAAVRLVRIPDTLHLEELLVSEALLPEVTAHPNLELLGPAEWVLDCVEG	not soluble
MSLRYPMSKLAYHRVLLKLSGEALMGSADYGIDPKVINRLAGEVIEAQNAGAELALVIGGGNIFRGAGLAAKGMDRVTGDHMGMLATIINALAMQDALEKLGTKVRVMSAIKINNVCEDFIRRRAIRHLEKSRITIFAAGTGNPFFTTDSGAALRAIEIGADLLLKATKVDGIYNKDPQKHCDAVKYSTLSYDEVISQNLEVMDTAAFALARDSNLPLRIFDIEQPGVLLRILHGEEIGTLVKERNSKSEGHHHHHH	not soluble
AEIKNVILMIGDGMGPQQVGLLETYANQAPNSIYKGNKTAIYQLAQEGVIGSSLTHPEDAIVVDSACSATMLATGIYSSSEVIGIDSQGNHVETVLEKAKKAGKATGLVSDTRLTHATPASFAAHQPHRSLENQIASDMLATGADVMLSGGLRHWIPKSTNDKGETYKQLEKLTQGDVYLKSKRKDDRNLLTEAEKDGYQLAFNRNMLDDAKGDKLLGLFAYSGMDDGIAYSNKKKSGERTQPSLKEMTQKALNILSKDEDGFFLMVEGGQIDWAGHSNDAGTMLHELLKFDEAIQTVYEWAKDREDTIVIVTADHETGSFGFSYSSNDLPKPQKRSGEAFADRDYAPNFNFGAFDILDGLYNQKQSYYGMISEFQKLDKSLQTPEKLAEIVNKNSEFPITAEQAKNVLASKPNPYRLAQHKYLSAEEVPAINDFDAFFPYNDRGNLLAREQATGQNIVWGTGTHTHTPVNVFAWGPAEKILPVSKIMHHSELGEYIKQQVN	soluble
MSLSADFSQPLADRLRPRTLDEYIGQLHLIEPGRPLYESIRRGRLHSMIFWGPPGTGKTTLARLVARHADAEFLPVSAVLSGVKEIREALARAVQFKAAGRRAILFVDEVHRFNKSQQDAFLAHVEDGTVSFIGATTENPSFEVNSALLSRARVYVLKALTEADLLGVIDRALSDAERGLGGRGLNMSDPVRMAYVRAADGDARRLLNLLEITADLLDAGQTVVSEEVARQVLASGTTRRFDKQGEEFYNQISALHKSVRGSSPDAALYWLCRMLDGGCDPLYLARRLVRIASEDIGNADPKALELCLNAWNAQERLGSPEGELALAQAVVYLAVAPKSNAVYEAYKAARADAARSGSLPVPLHLRNAPTGLMKGLDYGKGYRYAHDYPDAYVPGENYFPEGLERREYYRPVNRGMEIKIAEKLERLKALDKEADEGHHHHHH	not soluble
MDNRNHSANVLIHLHMPKTGGTTLKKIIKRNYDSRKSVDVYEEHHKLPGIFKGLSKQNIECVQGHLPFGVHEYFNRPTTYITMLRDPVDRVISEYYFIRNIEWHNLHESVMKMSLEEYQGLPKNRNLQTRYILGGQLTSVTEVNRAKNILKNHFAVVGLTEKFDASLFLMKEMFNWKQVAYQKYNVTKKRRSKEEISPKLLEKIAKNNEADLELYAFAKELLAKRIRALDPLSAYRLKRFERKHQQGFHGKRDRMAGDPLEHHHHHH	soluble
MGSDKIHHHHHHMAKNKALFECQACGNQQSKWLGKCPDCGAWDSFVELKAEQIKVLKELAQVSMKTSEAVCIEDVELEHFTRYSTDDNELDLVLGGGLVEGSLVLIGGSPGVGKSTLLLKIASNLAKQGKKVLYVSGEESKAQIKLRADRLEANTPNLFLLTELCLENILEELHKKDYSILIVDSIQTLYSNKITSAAGSITQVREITFELMRVSKAYNISTFIIGHITKEGAIAGPRVLEHMVDVVLYFEGDATKEIRLLRGFKNRFGGTNEVGIFEMTAKGLISAKDLANRFFTRGKAISGSALGVVMEGSRALVLEVQALVCESSYPKRSATGYEKNRLDMLLALLERKLEIPLGHYDVFVNISGGVKVSETAADLAVVAAIISSFKNRPLSKDSIFIGELSLNGEIREVFSLDTRLKEAKMQKFKNAIVPSKPLEDIGLKCFVAKELSQVLEWM	not soluble
MTLNAFIEKLSTQPELIEFTETMAVIESHYEFTPTEFANGNTVNLADQNNGSCKIFAFALLNQLSVDQTLACFGQYYRQDVLENPQGDDHQNIRNFMVTGWAGVQFKAQALQAK	not soluble
MRDVAIIGVKNTKFGELWERSLRDIVVEAGIGAIQDAGVSGKDIDALYIGNMSGGRFVEQEHIGALIADYSGLSRNLHVPATRVEAACASGGLALRQAIMAVASGYSEIVVAAGAEKMTDVGSEEASSALAAAADREWEGMAGATFPGLYAMIAKLHMHMYGTTGEQLAEVAVKNHKNGSFNPIAQYKNTITVDNVLNSIMVADPLHIFDCSPITDGASALVLAPAEIAHKYTDTPIYIKATAQASDTIALHDRRDITTLDATVMAAKRAYSMAKLTPEDIDLVEVHDCFTIAEICAIEDLGFAEKGKGGIVTENGETAIGGRIPVNTSGGLKACGHPVGATGIKQAVEIVTQLRGEAGKRQVEGAEYGMTHNVGGSGATAVVHIFSRGM	not soluble
MGSDKIHHHHHHMQPSATDSTISAGTQPHIVYSERASAPGPLLVFIPGTGGKTPKTAETEQAFIGTALAHGYRVIILSYIDTPAIAQVCTKRVLANDPACAEQVRQKRAFGDDTTARIDDAPQDAIVHRLNALIRYLAAHNAGDHWEQYLAGERLNWRAIVLSGQSQGGGMAAYIAKRIAIRGVIDFSGGWDMRSDSDIASWYSAPSATPPERWYGTYHADERFASAIAASYRAMNIPVSHQFSLSEPVRHPEGKNPGHGEGASNPVYRGIWETMLTGLE	not soluble
MENQEVVLSIDAIQEPEQIKFNMSLKNQSERAIEFQFSTGQKFELVVYDSEHKERYRYSKEKMFTQAFQNLTLESGETYDFSDVWKEVPEPGTYEVKVTFKGRAENLKQVQAVQQFEVKMAGDPLEHHHHHH	soluble
GPGSMADFPKLARIKLDDENMEKIHCAARKGQTEEVKRLVEQGIDPAIPNRFGCTALHLACKHGQIETAKYLSSICDVHGAWHGQRPLHLAVLSNKEVLVEALVEGARERGRNVEIMLNECDDVSVDDIGEHQKHTDGQTALHWCVALGDNYLPMLRLLIRLGASPTAKNKENVTSMMYAMEFKNEAAMEEMVKGVKPQQLRLDYQDKEGRTHLHYAILHNRQDYAMRFIEMGHDPQMEDDNHETPLFLALRAAMPDLLTYLLQNVDSFSVQQAPFHNGSVMVAERIQWLEFATDEQARTECIRLFQKRLDEVSFRPEETEKKRAKPTVKKMKLAPSAPLRSRSIGNASALRSRSIGGRISGK	soluble
LNDPLDSGRFSRKQLDKKYKHAGDFGISDTKKNRETLTKFRDAIEEHLSDKDTVEKGTYRREKGSKVYFNPNTMNVVIIKSNGEFLSGWKINPDADNGRIYLETGEL	soluble
MKLEASCGTATSEVPKPEKKTARDAEPSSETRPQEVEAEPRSGSGPEAEAEPLDFVVATERESEEVLAISGGIYGGLDYLPSRYHSWLRDPDRTVVLAKRNGGVIALESVNVIDAGETVLVEGLRVAPWERGKGVAGLLQRFCSQLVKRQHPGVKVARLTRDDQLGPRELKKYRLITKQGILLVRFNASALLAGLGARLAALRTSGTFSPLPTEAVSEAGGDVARLLLSPSVQRDVLPGGTIIQDWQPYRPSESNLRLLAAKGLEWRVDSRARPRVLTLCTRPFPIPHGGDGTWRYLNIDAFGSDGAQVQSQLLWHLQRQAPRLVGLNVMCQLFLEPQLWSQLADFCQVGLGLELVKGYTEQYLLEADI	soluble
MAKEKARYFTFLLYPESIPSDWELKLETLGVPMAISPLHDKDKSSIKGQKYKKAHYHVLYIAKNPVTADSVRKKIKLLLGEKSLAMVQVVLNVENMYLYLTHESKDAIAKKKHVYDKADIKLINNFDIDRYVTLDVEEKTELFNVVVSLIRAYTLQNIFDLYDFIDENGETYGLTINLVNEVIAGKTGFMKLLFDGAYQRSKRGTKNEER	soluble
MRRFTAFVLGLCLSLPVLAEQVQRFGDLDVHYNVFNSSFLQPNVASAVGLVRSKAQGVINVVPMEKGKPVEAAVTGSAKDLTGKVIPLEFRRVSEEGAIYNLAQFPISQRETLVFTIKVEAKGEPAQTFSFNKEIFPDE	not soluble
IPFPLSAYTHGGEFVRQLDKRILILDGAMGTMIQRYKLGEADFRGERFAEHHKDLKGDNELLSLVRPDVIAEIHRQYLEAGADVIETNTFGATSIAQGDYDLPELAYEMNLESARLARAACDAYSTPEHPRFVAGALGPQPKTASISPDVNDPGARNVTFDELRAAYVEQLNGLLDGGIDIVLIETIFDTLNAKAAIFAVEEAFEARGVRLPVMISGTVTDASGRILSGQTVEAFWNSVRHARPVTIGLNCALGAALMRPYVAELSKICDTYVCVYPNAGLPNPMAETGFDETPADTSALLEEFAQAGLVNMAGGCCGTTPEHIRAIAGKVAALTPRAVPEVPVKTRLSGLEALNIDDETLFVNVGERTNVTGSKMF	not soluble
MNNFTMPDKKYFLFAARRADDQLILVVPKSGERFLMNEELLRRDYNVQLGDFLHCKINRSKELYDISKTKHTANISTVVNGDEAIIENLRADLVSSDELLLFQSQLFDDIRCWQSDQPIGRYYIKMRLFPTSREMSGRMIHYEVVKITGSVKSIELNKQQGNFQQNIDSGYSAASEKTESSAGFSQSPAAGLPSPQNLIYPAGSKKIVSQQGTQVVGPGCPLVKKEETPANKIMGTGFPKSTKREENVFGSELLQQKKNNEKPGSTVGKGFTTSQTIGEKQRAVVTSIDAKRPGTYYLWNLDSKTEGLLKSTTPLELGHQFAGIFVNQENGKCFCKEYIGEIERVLEGKVNDTNKVNLTVKLLDFQPAGVNRRRASGTAKYIGDVLEGNTEDTKLTIECIGKKVNIERRKFGEKDFVWMVTEIRNCSQYDQKIF	not soluble
SGKCYLSLHEHNSSANRGACAQICRRGYTVKDKDSGLELDIENQYIMSPKDLKTIHFINKMMDAGVRVFKIEGRARGPEYVYTVCRCYKEAIEAYCNGTYDEESIGRWDEQLATVFNRGFWDGYYLGQRLGEWTHRYGSGATRQKIYVGKGIKYFSRLGVAEFEIESGELHIGDEIVITGPTTGVIIQKVEEIRYELQTVEKATKGQRISIPVKEKVRPSDKLYRFDKRE	not soluble
MSLNKPVLPKPAPSISSLSLKLPKADRSIETYRLAASRTFPARLEGPLNRIAFSAVHTVADPFADNDPWLSVAVDWDKTIAFREHVWDLGLGVAEAMDTAQRGMGLDWPTSLELITRSVAAAKRRNALVFSGAGTDHLAVEDARTVDDVIRAYEEQISAVEKVGGRIILMASRALAKLGRNADDYAKVYDRVLSQVREPVIIHWLGDMFDPALTGYWGTKDLDKAMDVAVAVINANAAKVDGVKVSLLDKQREIDMRRRLDKRIRMYTGDDFNYAELIAGDSQGFSHALLGIFDAIAPAASYALSRLAAGDEAGFHDVLGPTVPLSRHIFKAPTRFYKTGVVFMAYLNGHQDHFTMVGGQESARSMLHLAELFRLADQAGLLANPELATRRMTTVLASHGIESEGHHHHHH	not soluble
